# Assay results reported in PMC7655094.
# Several values for one entry are separate records, joined by “and”; a condition that tells them apart may be missing. Identical values can stand only once.
# Target: CD16 expressed by Jurkat-CD16 cells (UniProt P08637)
# Assay: flow cytometry on cells
# Sequence of UniProt P08637 (P08637 17-254): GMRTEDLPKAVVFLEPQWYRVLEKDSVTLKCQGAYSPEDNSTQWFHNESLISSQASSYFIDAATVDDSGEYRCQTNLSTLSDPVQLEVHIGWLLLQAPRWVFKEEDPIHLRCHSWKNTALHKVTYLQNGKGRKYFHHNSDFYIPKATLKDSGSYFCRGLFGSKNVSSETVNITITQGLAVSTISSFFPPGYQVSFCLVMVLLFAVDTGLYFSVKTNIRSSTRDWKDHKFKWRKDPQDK
substance,measurement,value
goat-produced cetuximab (gCetuximab) (antibody),MFI of bound competitor anti-CD16-PE/3G8,25.1 and 28.1 and 21.8
